Assay results taken from patent publication US20170291954A1.

Target: mesothelin on K562.meso cells (erythroblast cell line stably expressing mesothelin)
Experiment: cell-based or functional assay

CAR-T cell cytolysis at an Effector:target cell ratio of 10:1 (Cr51 release), K562meso: 95%
Substance: SS1 chimeric antigen receptor (mesothelin specific) on transduced T cells
